In article PMC6981728, “The Mitochondrial Small Heat Shock Protein HSP22 from Pea is a Thermosoluble Chaperone Prone to Co-Precipitate with Unfolding Client Proteins” (International Journal of Molecular Sciences, 2019):
Values joined by “and” are separate entries in the source; they are usually repeats but may differ in a detail not shown here. Identical values can stand only once.

T1: rhodanese from bovine liver (bovine, UniProt P00586 1-297)
T1 construct: rhodanese (thiosulfate sulfurtransferase) from bovine liver; called a monomeric enzyme of 33 kDa; In the assays it is heat denatured (50 °C) and aggregating; source: bought: Merck KGaA (rhodanese from bovine liver II)
T1 sequence (looked up): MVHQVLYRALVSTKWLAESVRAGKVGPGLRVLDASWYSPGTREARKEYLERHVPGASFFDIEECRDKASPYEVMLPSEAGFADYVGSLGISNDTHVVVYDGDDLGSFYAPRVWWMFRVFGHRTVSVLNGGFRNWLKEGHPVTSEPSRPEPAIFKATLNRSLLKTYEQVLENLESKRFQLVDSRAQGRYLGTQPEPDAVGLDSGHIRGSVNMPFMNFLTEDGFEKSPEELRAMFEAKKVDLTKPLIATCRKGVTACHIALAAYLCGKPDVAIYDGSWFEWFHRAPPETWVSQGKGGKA


Assays:
[1] = target: the molecule itself; test: SEC; purified HSP22rec (100 µg) at 20 °C; Superdex 200 10/300GL, 0.25 mL/min, 20 mM Tris pH 7.4, 1 mM EDTA, 150 mM NaCl; masses from a calibration curve with standard proteins
[2] = target: T1, rhodanese from bovine liver; test: co-sedimentation; heat aggregation assay with purified proteins: 8 to 25 µg of proteins in 50 µL MOPS 50 mM pH 7.5, DTT 1 mM, EDTA 1 mM, heated 20 min at 50 °C, 15 min on ice, centrifuged 30 min at 20,000 g; supernatants and pellets by SDS-PAGE; 1:1 mass ratio or molar ratios up to 9:1; details: both partners purified
[3] = target: the molecule itself; test: SEC; pea seed mitochondrial soluble proteins (7 mg) separated at 20 °C; fractions analysed by Western blot with the anti-HSP22 Cterm antibody

Binder | stoichiometry N [1] | binding result [2] | stoichiometry N [3]
recombinant HSP22 (HSP22rec), mature mitochondrial small heat shock protein HSP22 from pea (natural protein, UniProt P46254 32-202, looked up, mature HSP22 of pea, amplified from a cDNA encoding the HSP22 precursor (UniProtKB P46254); 19.5 kDa and 170 residues stated; Cloned by NdeI/BamHI into pET3a, so an added initiator methionine is likely (surmise); No tag is mentioned; source: E. coli B834 pLys (pET3a, pET-HSP22), purified (anion exchange HitrapQ, two SEC steps on Superdex 200); also unpurified in soluble extract of the …) FNTNAMRQYDQHSDDRNVDVYRHSFPRTRRDDLLLSDVFDPFSPPRSLSQVLNMVDLLTDNPVLSAASRRGWDARETEDALFLRLDMPGLGKEDVKISVEQNTLTIKGEEGAKESEEKEKSGRRFSSRIDLPEKLYKIDVIKAEMKNGVLKVTVPKMKEEERNNVINVKVD | 20 mer and 12 mer and 8 mer | binds | 
native HSP22 of pea seed mitochondria (natural protein, UniProt P46254 32-202, looked up, mitochondrial small heat shock protein HSP22 of pea, native protein in the soluble (matrix) extract of mitochondria from 22 h imbibed pea seeds; Detected by Western blot with anti-HSP22 peptide antibodies; source: endogenous, soluble protein extract of pea seed mitochondria) FNTNAMRQYDQHSDDRNVDVYRHSFPRTRRDDLLLSDVFDPFSPPRSLSQVLNMVDLLTDNPVLSAASRRGWDARETEDALFLRLDMPGLGKEDVKISVEQNTLTIKGEEGAKESEEKEKSGRRFSSRIDLPEKLYKIDVIKAEMKNGVLKVTVPKMKEEERNNVINVKVD |  |  | 2 mer and 3 mer
